Data as given in US20070014736A1, “Methods of delivering corticotroph-derived glycoprotein hormone” (priority 2005, published 2007).

What was measured:
[1] = system: LPS-induced mild endotoxemia mouse model; assay: LPS-induced mild endotoxemia mouse model, serum cytokines; format: in vivo, mice
Method: An in vivo experiment was designed to examine the effect of CGH in a mouse model of LPS-induced mild endotoxemia. This model mimics acute endotoxemia/sepsis by challenging mice with a low, non-lethal dose of bacterial endotoxin (lipopolysaccharide, LPS). Serum is collected at various timepoints (1-8 hours) after intraperitoneal LPS injection and analyzed for altered expression of a wide variety of pro- and anti-inflammatory cytokines and acute phase proteins that mediate the inflammatory response. The model provides a means to assess the potential anti-inflammatory effects of therapeutic candidates during a robust inflammatory response. To initially assess the model, we measured proinflammatory cytokines in a pilot experiment to collect reference data for the model.
C57B1/6 mice (Charles River Laboratories; 5 mice/group) were treated i.p. with PBS, 0.2 mg/kg CGH in PBS, or 2 mg/kg CGH in PBS 1 hour prior to LPS challenge. The mice were then challenged with 25 ug of LPS i.p. and bled at 1 hour and 4 hours after LPS injection. Serum was analyzed for TNF[…] (1 hour) and IL-6 (4 hours) levels by ELISA.
To determine if CGH would potentiate the effect of a sub-maximal dose of glucocorticoid, groups of 10 C57B1/6 mice each were treated i.p. with PBS, 0.15 or 1.5 mg/kg Dex, 2 mg/kg CGH, or a combination of CGH and low or high doses of Dex, 1 hour prior to injection of 25 ug LPS i.p. As shown in TABLE 3 (Expt #2), either 2 mg/kg CGH or 1.5 mg/kg Dex treatment alone (1 hour prior to LPS) caused a significant drop in serum TNFα levels at 1 hour, as observed in previous experiments. The effects of CGH administered in conjunction with Dex on inhibition of TNFα production were greater than either dose of Dex alone.

[2] = system: Delayed Type Hypersensitivity (DTH) reaction; assay: Delayed Type Hypersensitivity (DTH), change in ear thickness; format: in vivo, mice
TSHR = assay: Binding of 125I-CGH and 125I-TSH to BHK cells expressing the TSHR; design: species or system murine or human; conditions: increasing amounts of unlabeled protein
Method: BHK cells expressing murine or human TSHRs were cultured in Dulbecco's Modified Eagle's Medium [DMEM (high glucose)] containing 5% fetal bovine serum, 1% Glutamax, 1% sodium pyruvate, 250 nM methotrexate, and Geneticin ( 1/100). […] Plates of cells were placed on ice and washed twice with 1.0-2.0 ml of ice-cold PBS. […] Specific binding was determined in the presence (nonspecific binding) and absence (total binding) of unlabeled rhCGH (25.0 μg/ml) or TSH (10 μg/ml). Binding reactions were terminated by removing the binding medium and the cell monolayers were washed three times with 1.0-2.0 ml of ice-cold PBS containing 1.0 mg/ml BSA and twice with 1.0-2.0 ml of ice cold albumin-free PBS. Cells were solubilized in 1.0 ml of 1.0N NaOH for 10 min at room temperature and cell-associated radioactivity was determined in a gamma counter. The measured radioactivity was normalized to cell number that was determined on plates of cells cultured in parallel. Binding data were analyzed by non-linear regression using Prizm 3.0 (GraphPad Software, San Diego, Calif.).

[3] = Expt 1, 0.2 mg/kg CGH i.p. 1 hr prior to LPS
[4] = Expt 1, 2 mg/kg CGH i.p. 1 hr prior to LPS
[5] = Expt 1, 0.2 mg/kg CGH i.p. at challenge (d7), 24 h
[6] = Expt 1, 2.0 mg/kg CGH i.p. at challenge (d7), 24 h
[7] = Expt 2, 0.2 mg/kg CGH i.p. at challenge (d7)
[8] = Expt 2, 2.0 mg/kg CGH i.p. at challenge (d7)
[9] = Expt 3, 0.2 mg/kg CGH i.p. at sensitization (d0-4)
[10] = Expt 3, 2.0 mg/kg CGH i.p. at sensitization (d0-4)

B1: CGH: heterodimeric protein hormone comprised of alpha subunit GPHA2 and beta subunit GPHB5, recombinantly produced in CHO cells (protein)
chain 1: QEAVIPGCHLHPFNVTVRSDRQGTCQGSHVAQACVGHCESSAFPSRYSVLVASGYRHNITSVSQCCTISGLKKVKVQLQCVGSRREELEIFTARACQCDMCRLSRY
chain 2: ASSGNLRTFVGCAVREFTFLAKKPGCRGLRITTDACWGRCETWEKPILEPPYIEAHHRVCTYNETKQVTVKLPNCAPGVDPFYTYPVAIRCDCGACSTATTECETI
For B1, the “reduction of TNFα induction” value ([1]; 2 mg/kg CGH, 1 hour time point, Expt 1) was “about 60%”, the “increase of serum IL-6 levels” value ([1]; 2 mg/kg CGH, 4 hour time point, Expt 1) was “about 70%” and the “IL-6, 4 hours” value [1, 3] was 49.7 ± 3.1 ng/mL. For the same molecule, the “TNFα, 1 hour” value [1, 3] was 3916 ± 1057 pg/mL, the “IL-6, 4 hours” value [1, 4] was 71.1 ± 12.9 ng/mL and the “TNFα, 1 hour” value [1, 4] was 2290 ± 530 pg/mL. The “IL-6, 4 hours” value ([1]; Expt 2, 2 mg/kg CGH) was 57.1 ± 16.2 ng/mL, the “TNFα, 1 hour” value ([1]; Expt 2, 2 mg/kg CGH) was 2274 ± 524 pg/mL and the “Change in ear thickness, left ear (PBS)” value [2, 5] was 0.17 +/− 0.95 ×10^−3 inch. The “Change in ear thickness, right ear (OVA)” value [2, 5] was 3.48 +/− 0.79 ×10^−3 inch, the “Change in ear thickness, left ear (PBS)” value [2, 6] was 0.21 +/− 0.34 ×10^−3 inch and the “Change in ear thickness, right ear (OVA)” value [2, 6] was 2.48 +/− 1.05 ×10^−3 inch. For the same molecule, the “Change in ear thickness, left ear (PBS)” value [2, 7] was 0.65 +/− 0.63 ×10^−3 inch, the “Change in ear thickness, right ear (OVA)” value [2, 7] was 4.41 +/− 0.95 ×10^−3 inch and the “Change in ear thickness, left ear (PBS)” value [2, 8] was 0.67 +/− 1.05 ×10^−3 inch. For the same molecule, the “Change in ear thickness, right ear (OVA)” value [2, 8] was 3.92 +/− 1.00 ×10^−3 inch, the “Change in ear thickness, left ear (PBS)” value [2, 9] was 1.31 +/− 0.42 ×10^−3 inch and the “Change in ear thickness, right ear (OVA)” value [2, 9] was 4.06 +/− 0.73 ×10^−3 inch. For the same molecule, the “Change in ear thickness, left ear (PBS)” value [2, 10] was 1.11 +/− 0.49 ×10^−3 inch, the “Change in ear thickness, right ear (OVA)” value [2, 10] was 4.57 +/− 1.58 ×10^−3 inch and the “reduction of the amount of 125I-CGH bound by unlabeled competitor” value (TSHR) was “reduced the amount of ^125I-CGH bound”.
